From patent US20230383245A1, “CULTURE MEDIUM COMPOSITION” (NISSAN CHEMICAL CORPORATION, priority 2014, published 2023)

Experiment: Viscosity measurement and state of medium composition (E type viscometer)
Assay type: physicochemical
Protocol: Deacylated gellan gum (KELCOGEL CG-LA, manufactured by SANSHO Co., Ltd.) was suspended in pure water to 0.4% (w/v), and dissolved by stirring with heating at 90° C. This aqueous solution was allowed to cool to room temperature with stirring, and sterilized at 121° C. for 20 min in an autoclave. A 2-fold concentration of DMEM/F-12 medium (manufactured by Aldrich, 50 mL) and sterilization water (47.5 mL) were placed in a 300 mL tall beaker with stirring by a homomixer (3000 rpm) at room temperature, aqueous deacylated gellan gum solution (2.5 mL) was added, and the mixture was continuously stirred for 1 min to prepare a deacylated gellan gum medium composition with a final concentration of 0.01%. Medium compositions added with aqueous deacylated gellan gum solution with final concentrations of 0.02, 0.03 and 0.05% (w/v) were similarly prepared. The viscosity of the medium compositions was measured using an E type viscometer (manufactured by Toki Sangyo Co., Ltd., Viscometer TVE-22 L, standard roter 1°34′×R24) under 37° C. condition at 100 rpm for 5 min.
The medium compositions prepared above were subjected to a suspension test of HeLa cell spheres and a viscosity measurement, in the same manner as with the deacylated gellan gum-containing medium. The viscosity of 1.0% (w/v) methylcellulose was measured at 50 rpm due to the measurement range of the apparatus.
In the same manner as in Reference Experimental Example 2, spheres of HeLa cells were formed, and several tens of the spheres were added to each medium (1 mL) prepared above, the mixture was stood still at 37° C. for 1 hr, and the suspended state of the sphere cells was visually observed. […] Furthermore, it was confirmed that addition of an equal amount of the medium to the cell suspension and centrifugation (300 to 400G, for 5 min) thereof result in sedimentation and recovery of the spheres of HeLa cells.
By a method similar to that for the polysaccharide mixture of Reference Experimental Example 9, DMEM/F-12 media containing deacylated gellan gum at a final concentration of 0.005, 0.01% (w/v) and other polysaccharide were prepared. The final concentration of polysaccharide was set to 0.1% (w/v) for xanthan gum, sodium alginate, locust bean gum, 0.2% (w/v) for methylcellulose, and 0.05% (w/v) for K-carageenan and diutan gum. The state of each medium composition and the viscosity measured by a method similar to that in Analysis Example 1 are shown in Tables 11-16.

Question: Which state (concentration 0.01 %(w/v) in DMEM/F-12) does the source give for collagen here?
Answer: liquid

Question: What about the viscosity (concentration 0.01 %(w/v) in DMEM/F-12, 37° C., 100 rpm) of the same substance?
Answer: 1.18 mPa · s

Question: And the state (concentration 0.05 %(w/v) in DMEM/F-12)?
Answer: liquid/solid (gel)

Question: What about the state (concentration 0.1 %(w/v) in DMEM/F-12) of the same substance?
Answer: solid (gel)

Question: What about the state (concentration 0.2 %(w/v) in DMEM/F-12) of the same substance?
Answer: solid (gel)
